Key:
[1] = target: pepIII peptide (PepIII portion of EGFRvIII), 13-mer …; assay: eluted supernatant mixed with pepIII-conjugated beads and free pepIII competitor in the second round, flow cytometry
[2] = target: pepIII peptide (PepIII portion of EGFRvIII), 13-mer …; assay: eluted supernatant of unblocked sample rebound to pepIII-conjugated beads, flow cytometry
[3] = target: pepIII peptide (PepIII portion of EGFRvIII), 13-mer …; assay: eluted supernatant of sample blocked with free pepIII in the first round of binding, rebound to pepIII-conjugated beads, flow cytometry

Substance: L8A4 anti-pepIII monoclonal antibody
- antibody level (FIG. 2, fluorescence) [1]: 2.57
- antibody level (FIG. 2, fluorescence) [2]: 31.2
- antibody level (FIG. 2, fluorescence) [3]: 2.21

Reference: patent publication US20120115739A1
